Assay [1] concerns the target Abl1-Pmp52 (ABL1 SH3 domain with Pmp at position 52) (human, 4-phosphomethyl-L-phenylalanine (Pmp) at position 52). Kind of assay: fluorescence polarisation.
For assay [2], the target named is wild-type Abl1 (ABL1 SH3 domain) (human, UniProt P00519 61-121). Put plainly: fluorescence polarisation.

Ends that are not written are not given here.

wild-type Abl1 (ABL1 SH3 domain), sequence (P00519 whole entry, looked up, the tested form may be a part): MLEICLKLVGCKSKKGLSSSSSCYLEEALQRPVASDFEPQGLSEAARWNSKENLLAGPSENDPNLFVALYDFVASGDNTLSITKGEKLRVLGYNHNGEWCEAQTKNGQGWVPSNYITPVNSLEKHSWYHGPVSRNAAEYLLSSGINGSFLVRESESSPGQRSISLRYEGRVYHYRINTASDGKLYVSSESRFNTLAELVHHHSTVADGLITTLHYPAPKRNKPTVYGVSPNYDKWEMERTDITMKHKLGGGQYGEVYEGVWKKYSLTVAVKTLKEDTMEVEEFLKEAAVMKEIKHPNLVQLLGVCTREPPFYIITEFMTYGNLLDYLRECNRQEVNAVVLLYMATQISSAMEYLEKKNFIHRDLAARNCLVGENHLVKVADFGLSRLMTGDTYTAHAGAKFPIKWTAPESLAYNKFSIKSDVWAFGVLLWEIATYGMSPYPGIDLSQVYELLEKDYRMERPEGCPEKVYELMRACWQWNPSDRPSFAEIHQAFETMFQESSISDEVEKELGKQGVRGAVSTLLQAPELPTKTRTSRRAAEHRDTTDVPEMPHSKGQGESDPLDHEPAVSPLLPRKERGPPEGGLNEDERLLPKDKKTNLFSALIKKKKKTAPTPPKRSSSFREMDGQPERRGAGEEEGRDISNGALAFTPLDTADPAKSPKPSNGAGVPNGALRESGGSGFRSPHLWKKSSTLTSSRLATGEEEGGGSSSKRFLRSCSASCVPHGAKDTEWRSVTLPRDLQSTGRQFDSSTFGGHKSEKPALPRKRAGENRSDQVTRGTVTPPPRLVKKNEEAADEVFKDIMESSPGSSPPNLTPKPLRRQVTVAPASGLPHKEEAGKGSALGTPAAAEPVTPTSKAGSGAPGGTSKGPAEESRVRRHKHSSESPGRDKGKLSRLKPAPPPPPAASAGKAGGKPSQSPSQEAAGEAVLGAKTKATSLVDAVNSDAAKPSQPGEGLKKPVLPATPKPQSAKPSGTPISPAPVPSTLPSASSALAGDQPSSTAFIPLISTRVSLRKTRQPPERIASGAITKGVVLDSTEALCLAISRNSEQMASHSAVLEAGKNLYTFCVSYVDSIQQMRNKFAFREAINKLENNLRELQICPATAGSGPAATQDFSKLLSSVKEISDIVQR

One may read the Kd as the constant that tells how readily two partners part at equilibrium. On to PPAYPPPPVP (also: FAM label, position not given here) [3BP2 peptide (FAM labeled)], for which the Kd in assay [1] and in assay [2] was 5 ± 0.8 µM throughout.

For the origin of these results see paper PMC5577365 (Nature chemical biology, 2017).
